Marks after values point to notes of the source that are not given here.
Legend:
[1] = biological target: T1, Peptide C (C-terminal biotinylated de2-7 peptide) (Homo sapiens, UniProt P00533, DELINS30-297G); assay: BIAcore with immobilized Peptide C; type: binding; conditions: mAbL8A4 even at 6.25 nM, mAb806 up to 100 nM
T1 construct: purchased Biosource, Camarillo, Calif
Method: Peptide C was immobilized on a Streptavidin microsensor chip at a surface density of 350RU (+/−30RU). Serial dilutions of mAbs were tested for reactivity with the peptide. Blocking experiments using non-biotinylated peptide were performed to assess specificity.

[2] = tested on: panel of 12 different malignancies; assay: immunohistochemistry of tumor panel; type: binding, human
Method: (§1) Immunohistochemical analysis was performed using […] sections of fresh frozen tissue applied to histology slides and fixed for 10 minutes in cold acetone. Bound primary antibody was detected with biotinylated horse anti-mouse antibody followed by an avidin-biotin-complex reaction. Diaminobenzidine tetrahydrochloride (DAB) was used as chromogen. The extent of the immunohistochemical reactivity in tissues was estimated by light microscopy and graded according to the number of immunoreactive cells in 25% increments as follows:
The extent of de2-7 EGFR in other tumor types was examined using a panel of 12 different malignancies. […] This staining was strongly dependent on antibody concentration used and was considered nonspecific background reactivity.

[3] = tested on: glioblastomas not preselected for EGFR status; assay: immunohistochemistry of 46 unselected glioblastomas; type: binding, human
Method: as §1
The 528 antibody was strongly and homogeneously positive in all samples except two (Nos. 27 and 29) (44/46, 95.7%).

B1: mAb806: murine IgG2b monoclonal antibody, clone 806, ATCC PTA-3858; VH SEQ ID NO:2, VL SEQ ID NO:4 (antibody, listed as Mus musculus, V domains shown)
VH: MRVLILLWLFTAFPGVLSDVQLQESGPSLVKPSQSLSLTCTVTGYSITSDFAWNWIRQFPGNKLEWMGYISYSGNTRYNPSLKSRISITRDTSKNQFFLQLNSVTIEDTATYYCVTAGRGFPYWGQGTLVTVSA
VL: MVSTAQFLAFLLLWFPGARCDILMTQSPSSMSVSLGDTVSITCHSSQDINSNIGWLQQRPGKSFKGLIYHGTNLDDEVPSRFSGSGSGADYSLTISSLESEDFADYYCVQYAQFPWTFGGGTKLEIKR
[1]
  reactivity with Peptide C: did not show detectable specific reactivity
[2]; Colonic carcinoma
  positive tumors / tumors tested: 0/10
[2]; Head + neck cancer (sqcc)
  positive tumors / tumors tested: 7/11
[2]; Leiomyosarcoma
  positive tumors / tumors tested: 0/5
[2]; Liposarcoma
  positive tumors / tumors tested: 0/5*
[2]; Lung (sqcc, adeno, neuroend)
  positive tumors / tumors tested: 6/12
[2]; Malignant melanoma metastases
  positive tumors / tumors tested: 0/10
[2]; Mammary gland
  positive tumors / tumors tested: 1/10
[2]; Mfh Malignant fibrous histiocytoma
  positive tumors / tumors tested: 0/5*
[2]; Ovary (serous-papillary)
  positive tumors / tumors tested: 0/5
[2]; Seminoma
  positive tumors / tumors tested: 0/10
[2]; Synovial sarcoma
  positive tumors / tumors tested: 0/5*
[2]; Urinary bladder (tcc, sqcc, adeno)
  positive tumors / tumors tested: 3/10*
[2]; head and neck tumors
  tumors with positive staining: 64%
[2]; lung carcinomas
  tumors with positive staining: 50%
[2]; urinary tumors
  tumors with positive staining: 30%
[3]; glioblastoma #1, EGFR Amp. A, 5′ MUT
  Immunoreactivity: ++++ (++++=>75%)
[3]; glioblastoma #2, EGFR Amp. N, WT
  Immunoreactivity: ++++ (++++=>75%)
[3]; glioblastoma #3, EGFR Amp. N, A2
  Immunoreactivity: ++++ (++++=>75%)
[3]; glioblastoma #4, EGFR Amp. N, WT
  Immunoreactivity: ++++ (++++=>75%)
[3]; glioblastoma #5, EGFR Amp. N, 5′ MUT
  Immunoreactivity: ++++ (++++=>75%)
[3]; glioblastoma #6, EGFR Amp. A, WT
  Immunoreactivity: ++++ (++++=>75%)
[3]; glioblastoma #7, EGFR Amp. N, 5′ MUT
  Immunoreactivity: ++++ (++++=>75%)
[3]; glioblastoma #8, EGFR Amp. A, 5′ MUT
  Immunoreactivity: ++++ (++++=>75%)
[3]; glioblastoma #9, EGFR Amp. A, WT
  Immunoreactivity: ++++ (++++=>75%)
[3]; glioblastoma #10, EGFR Amp. N, WT
  Immunoreactivity: neg.
[3]; glioblastoma #11, EGFR Amp. A, 5′ MUT
  Immunoreactivity: ++ (++=25-50%)
[3]; glioblastoma #12, EGFR Amp. A, 5′ MUT
  Immunoreactivity: ++ (++=25-50%)
[3]; glioblastoma #13, EGFR Amp. N, WT
  Immunoreactivity: ++++ (++++=>75%)
[3]; glioblastoma #14, EGFR Amp. Nd, nd
  Immunoreactivity: neg.
[3]; glioblastoma #15, EGFR Amp. N, WT
  Immunoreactivity: ++ (++=25-50%)
[3]; glioblastoma #16, EGFR Amp. N, nd
  Immunoreactivity: neg.
[3]; glioblastoma #17, EGFR Amp. N, WT
  Immunoreactivity: neg.
[3]; glioblastoma #18, EGFR Amp. A, 5′ MUT
  Immunoreactivity: ++++ (++++=>75%)
[3]; glioblastoma #19, EGFR Amp. N, WT
  Immunoreactivity: ++++ (++++=>75%)
[3]; glioblastoma #20, EGFR Amp. N, WT
  Immunoreactivity: neg.
[3]; glioblastoma #21, EGFR Amp. N, WT
  Immunoreactivity: ++++ (++++=>75%)
[3]; glioblastoma #22, EGFR Amp. N, WT
  Immunoreactivity: neg.
[3]; glioblastoma #23, EGFR Amp. N, 5′ MUT
  Immunoreactivity: ++++ (++++=>75%)
[3]; glioblastoma #24, EGFR Amp. A, WT
  Immunoreactivity: ++++ (++++=>75%)
[3]; glioblastoma #25, EGFR Amp. N, WT
  Immunoreactivity: neg.
[3]; glioblastoma #26, EGFR Amp. A, 5′ MUT
  Immunoreactivity: ++++ (++++=>75%)
[3]; glioblastoma #27, EGFR Amp. N, WT
  Immunoreactivity: neg.
[3]; glioblastoma #28, EGFR Amp. N, WT
  Immunoreactivity: neg.
[3]; glioblastoma #29, EGFR Amp. N, WT
  Immunoreactivity: neg.
[3]; glioblastoma #30, EGFR Amp. N, WT
  Immunoreactivity: ++++ (++++=>75%)
[3]; glioblastoma #31, EGFR Amp. N, nd
  Immunoreactivity: neg.
[3]; glioblastoma #32, EGFR Amp. N, 5′ MUT
  Immunoreactivity: +++ (+++=50-75%)
[3]; glioblastoma #33, EGFR Amp. A, 5′ MUT
  Immunoreactivity: ++++ (++++=>75%)
[3]; glioblastoma #34, EGFR Amp. N, WT
  Immunoreactivity: +++ (+++=50-75%)
[3]; glioblastoma #35, EGFR Amp. A, 5′ MUT
  Immunoreactivity: neg.
[3]; glioblastoma #36, EGFR Amp. A, 5′ MUT
  Immunoreactivity: ++ (++=25-50%)
[3]; glioblastoma #37, EGFR Amp. A, 5′ MUT
  Immunoreactivity: + (+=5-25%)
[3]; glioblastoma #38, EGFR Amp. N, WT
  Immunoreactivity: neg.
[3]; glioblastoma #39, EGFR Amp. N, 5′ MUT
  Immunoreactivity: neg.
[3]; glioblastoma #40, EGFR Amp. A, WT
  Immunoreactivity: ++++ (++++=>75%)
[3]; glioblastoma #41, EGFR Amp. N, WT
  Immunoreactivity: neg.
[3]; glioblastoma #42, EGFR Amp. A, WT
  Immunoreactivity: ++++ (++++=>75%)
[3]; glioblastoma #43, EGFR Amp. nd, nd
  Immunoreactivity: neg.
[3]; glioblastoma #44, EGFR Amp. N, WT
  Immunoreactivity: neg.
[3]; glioblastoma #45, EGFR Amp. N, WT
  Immunoreactivity: neg.
[3]; glioblastoma #46, EGFR Amp. N, nd
  Immunoreactivity: neg.
[3]; panel of 46
  positive cases / glioblastomas: 27/46
